± gives the half width of the 95% confidence interval.
Experiments:
[1] = folding stability dG unfold from trypsin proteolysis; higher = more stable
Method in brief: (§1)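 Sequencing followed digestion of designed mini-proteins with trypsin and chymotrypsin, each at 11 concentrations in threefold dilutions together with a no-protease condition. The mini-proteins were under 80 residues, had no cysteine, sat in a PA-tagged cDNA display construct, and were kept only if AlphaFold2 dimer inter-PAE was above 15. From the counts, Bayesian fitting gave K50, and unfolding free energy was derived against a sequence-predicted unfolded-state K50 and a shared folded-state K50, per protease or combined.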

[2] = folding stability dG unfold from chymotrypsin proteolysis; higher = more stable
Method in brief: as §1

[3] = folding stability dG unfold (combined trypsin and chymotrypsin); higher = more stable
Method in brief: as §1

Row | Sequence | folding stability dG unfold [1] [kcal/mol] | folding stability dG unfold [2] [kcal/mol] | folding stability dG unfold [3] [kcal/mol]
1 | SPPVSTTTPVPDPENGVVVATVTLTTDPTTGEKTLILKSPEGKTKTVTLSPDETFPVEGLPKGLTATSSVSA [r9_1150_JUSTAS] | -0.942 ± 0.47 | 0.437 ± 0.082 | 0.0862 ± 0.14
2 | SPRTTVSFEVYMPPDQLKQNSIEDIADRVRDHFPGYKIKGIDIKFEPYPDPENGRPWVRVTVMIRVEPPESA [r9_1189_TrROS] | 2.34 ± 0.085 | 3.28 ± 0.098 | 2.96 ± 0.14
3 | SPSRPTLVTTYTFDPSGVPTATTKEITPEEVEELEKKGWKKLSEDPEKGLITLEKKLPTSPQKIEVTILPSA [r9_5_JUSTAS] | -0.402 ± 0.2 | 0.0733 ± 0.27 | 0.0748 ± 0.29
4 | SPSTTVETTVTIPYTYRLPDGTVLEYNLTISVTASLTNGGISTGDLKSAIDTALAAANIPPGPPDLPLLLRS [r1_175_JUSTAS] | 0.738 ± 0.13 | 2.31 ± 0.098 | 1.83 ± 0.096
5 | SPTIKASYDPETGVLTVYVKLRDPETGEPIPAEAVAAKIKELFPDAEILDIEPNPDGYVKITVKVAPDAVSA [r9_87_TrMRF] | 3.48 ± 0.11 | 3.79 ± 0.086 | 3.72 ± 0.071
6 | SPTQTITLTLPDRPVTVPLTAYPETGYVEITVTVTYPTGTKTYTFTVKAKSFEEVLAELSKLPEDFDINPSA [r9_713_TrMRF] | 1.83 ± 0.073 | 1.81 ± 0.088 | 1.85 ± 0.052
7 | SPTVTETTLIASEEDPSSGVKTELTETTTIVKVGGTTTEVTTTTTTLTPEEDGKGTSTVTPSTTTTPIPASA [r9_375_JUSTAS] | 0.84 ± 0.079 | 1.45 ± 0.12 | 1.29 ± 0.12
8 | SPVKIRIIVPKGMDPEMANFIVKEIMKHLGLPPGAPVEILPWEDLQKNPDVHQALEEAEKEGADIVILIRSA [r9_1147_TrROS] | 3.08 ± 0.14 | 4.16 ± 0.16 | 3.84 ± 0.1
9 | SPVKWGEEKTYTYPFPDNPNYRIKIKVHVYKDPENGRPYVRMNIEVYNNGKPRKYNINMPVDQLKDLLQFSA [r9_71_TrROS] | 2.22 ± 0.039 | 2.66 ± 0.076 | 2.57 ± 0.21
10 | SQNGGPKRKVTITIIIVIPPGQRNPDGKPRPSVEELARYLQKELQEQFPGNKDVKIDITIIPLGDPEQIKSA [r9_329_TrROS] | 2.06 ± 0.069 | 2.86 ± 0.15 | 2.33 ± 0.21
11 | SQVKIHIPFEVEYSPENGNYFFMIRVRYPGKERPIMFPYKDPEQMREWARTIAKELAKENPDNVEIEIWWSA [r9_1148_TrROS] | 2.42 ± 0.038 | 2.83 ± 0.095 | 2.73 ± 0.15
12 | SRIKISIFRPGKIIPEIPIKVDSVEEAVEKVLEYIRKFPPNAPYYIMIEVEHTDPANGQKQEGTVHIPIKSA [r9_245_TrROS] | 2.22 ± 0.059 | 4 ± 0.048 | 3.39 ± 0.12
13 | SSAEELARRLAAELAERLPPGARITDVRIERRADGTVTITVTVELPDGRTLTVTITLDLATGEITIEIHPSA [r9_219_TrROS_Hall] | 4.95 ± 0.16 | 4.35 ± 0.26 | 4.89 ± 0.19
14 | SSEILEKLAKELPDLEPVGVEEEPLPDGGRRLTLVARRPETGTYVRVTVDVPPGGGVASVEVEEVPVSRLSA [r9_274_JUSTAS] | 0.529 ± 0.054 | 2.23 ± 0.033 | 1.77 ± 0.054
15 | SSKIEASATIEGDVITVTLVADSLSDLLAAIKELAEKLGVSFEILSISYKRLPNGKIIATVTARVKPEDLSA [r9_102_TrMRF] | 3.24 ± 0.056 | 4.65 ± 0.048 | 4.277 ± 0.039
16 | SSLSIPGATKEEFEEIAEELEKKNPGVKVTVTYDPENGVITITITKPVKDKKGNLIGTETEVITITVTKPSA [r9_378_JUSTAS] | 3.05 ± 0.41 | 2.26 ± 0.072 | 2.41 ± 0.14
17 | SSMSSSPLGSDPATGTTYYLSVSNNSTTLSTVTPAPVLPISPEELEKIAKELAKKNPKLAKKAKELAEKLKS [r1_330_JUSTAS] | -0.301 ± 0.2 | 0.123 ± 0.25 | -0.0137 ± 0.3
18 | SSMTLVTVEMEITLRTPEGGSETLKRTFEREVSPDDPAAVEAAVEAAKEEIREAHPDVVEVRVVKVDTALSA [r9_436_JUSTAS] | 4.06 ± 0.089 | 4.459 ± 0.039 | 4.41 ± 0.046
19 | SSMTTTEKKYTYNDSSISVSTTTLPDGSKLITTPITRKNPDGIDVTETLTTLDKGSGVTPVSPSTSTLNTSA [r9_554_JUSTAS] | -1.24 ± 0.18 | 0.602 ± 0.035 | 0.177 ± 0.069
20 | SSPIMIKMKDPDDREKIEKAVEEINDETGMSIRPESVDPNGKYTFMINMPPEHQKKILKALREAGNIEIVSA [r9_472_TrROS] | 0.289 ± 0.21 | 1.1 ± 0.15 | 0.874 ± 0.16
21 | SSPKILTESELKITIPMTDPETGKPINLEVTIPLLVDPATGTVEVLEIKITGPEEVQEILKKLIEKLIKESA [r9_619_JUSTAS] | 2.14 ± 0.23 | 2.15 ± 0.12 | 2.11 ± 0.22
22 | SSSGPKTELITLKYEEPVRSPEEAEARARALAEEIAERTGAPIEVDVEIEYDPETGKAYVTVPVRVLLPDSA [r9_741_JUSTAS] | 1.14 ± 0.037 | 0.124 ± 0.16 | 0.727 ± 0.1
23 | SSSTVTVTVTFPDGTVVTVDFTGSLAEVEAAVREWVRQYAAEQGLDPREVRVTITFADDGTTRERTLPLRSA [r9_1193_JUSTAS] | 0.921 ± 0.043 | 2.42 ± 0.035 | 2.04 ± 0.086
24 | SSSVVESSYDPSTGTLTVTVSYDFPPAPPAAATSSTTPVGSNSYTGSGSYTSPAGASSLSSTATGPPTLSSA [r9_780_JUSTAS] | 1.43 ± 0.031 | 1.15 ± 0.054 | 1.37 ± 0.048
25 | SSVTIPFKITDPNTTIAEIAERVRELLPESLGELSVTVTFSDGTTLNVTPGENLSKYYSPDDELTITVDAPS [r1_56_JUSTAS] | 1.29 ± 0.034 | 1.23 ± 0.11 | 1.27 ± 0.11
26 | SSVTLVLEKPLPSGKRLVVVTTLKPEPARGTVRLDVTTTTYTFSKTENGEITTSSTTSTSTETVSPEELLSA [r9_1137_JUSTAS] | 2.53 ± 0.13 | 2.48 ± 0.18 | 2.49 ± 0.29
27 | STLTLEELKERFPELSEEELEALAERLAALPAPVTVTVEVRPAPPPPVEERELSEEELLEARLRPGERVESA [r9_1024_TrROS_Hall] | 0.624 ± 0.06 | 1.94 ± 0.056 | 1.51 ± 0.098
